# Measurements published in paper PMC6614797.
# How the values were obtained:
# RNA polymerase (E. coli) = RNA polymerase (E. coli) (UniProt P0A7Z4); experiment: SEC
# [1] = molecular target: NusA-AR2^D443C labeled with fluorescein-5-maleimide (E. coli) (UniProt P0AFF6); experiment: fluorescence polarisation
percent of S4 coeluted with the rrnG-TAC (RNA polymerase (E. coli)) [%],Kd [1] [µM],percent of SuhB coeluted with the rrnG-TAC (RNA polymerase (E. coli)) [%],Substance
25,–,–,ribosomal protein S4 (from UniProt P0A7V8 1-206) (natural protein)
–,83,20,inositol monophosphatase SuhB (from UniProt P0ADG4 1-267) (natural protein)
